In the supplement of paper PMC7877785:
± gives the uncertainty stated by the source.

Assay: self-splicing fitness, log relative to wild type (ln ratio); higher = more splicing; Tetrahymena group I intron in knt gene, E. coli kanamycin selection, DiMSum; sequences stand for … in CUCUCU…GGAGGGAAAAGUUAUCAGGCAUGCACCUGGUAGCUAGUCUUUAAACCAAUAGAUUGCAUCGGUUUAAAAGGCAAGACCGUCAAAUUGCGGGAAAGGGGUCAACAGCCGUUCAGUACCAAGUCUCAGGGGAAACUUUGAGAUGGCCUUGCAAAGGGUAUGGUAAUAAGCUGACGGACAUGGUCCUAACCACGCAGCCAAGUCCUAAGUCAACAGAUCUUCUGUUGAUAUGGAUGCAGUUCACAGACUAAAUGUCGGUCGGGGAAGAUGUAUUCUUCUCAUAAGAUAUAGUCGGACCUCUCCUUAAUGGGAGCUAGCGGAUGAAGUGAUGCAACACUGGAGCCGCUGGGAACUAAUUUGUAUGCGAAAGUAUAUUGAUUAGUUUUGGAGUACUCGUGGUCG
Method in brief: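 Six replicate transformations of E. coli BL21(DE3) with a pET-22b(+) library were grown overnight at 37°C or 30°C. The library randomised all eight P1ex-region intron nucleotides, the intron lying in the knt kanamycin-resistance gene, and plates were LB agar with or without 25 μg/mL kanamycin plus 100 μg/mL carbenicillin, 50 μM IPTG and 0.2% rhamnose. Pooled colonies were amplicon-sequenced on an Illumina HiSeq 2500, and fitness is the DiMSum error-weighted combination of wild-type-normalised replicate fold changes, kanamycin versus none.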

Sequence | self-splicing fitness (ln) (30 °C) | self-splicing fitness (ln) (37 °C)
CUAGAGCAAUAUUACGUUAA | -3.73 ± 0.24 | -1.89 ± 0.28
CUAUAGCAAUAUUACGACGU | -3.85 ± 0.37 | -1.96 ± 0.3
CUAUAGCAAUAUUACGAGAC | -1.7 ± 0.37 | –
CUAUAGCAAUAUUACGAUGA | -1.92 ± 0.16 | -1.3 ± 0.17
CUAUAGCAAUAUUACGCACA | -2.35 ± 0.27 | -1.89 ± 0.25
CUAUAGCAAUAUUACGCAUG | -2.02 ± 0.093 | -0.942 ± 0.095
CUAUAGCAAUAUUACGCCAA | – | -1.68 ± 0.49
CUAUAGCAAUAUUACGCUCG | -1.74 ± 0.12 | -0.741 ± 0.14
CUAUAGCAAUAUUACGCUGC | -3.11 ± 0.36 | –
CUAUAGCAAUAUUACGCUUG | -2.62 ± 0.25 | -2.14 ± 0.26
CUAUAGCAAUAUUACGGAAA | -2.82 ± 0.2 | -2.06 ± 0.42
CUAUAGCAAUAUUACGGAUC | -3.75 ± 0.4 | -2.31 ± 0.25
CUAUAGCAAUAUUACGGCGG | -0.513 ± 0.12 | -0.641 ± 0.14
CUAUAGCAAUAUUACGGCUG | -1.02 ± 0.12 | -0.165 ± 0.15
CUAUAGCAAUAUUACGGGAU | -3.92 ± 0.25 | -0.972 ± 0.16
CUAUAGCAAUAUUACGGGUC | -3.19 ± 0.29 | -2.05 ± 0.28
CUAUAGCAAUAUUACGGGUG | -0.36 ± 0.061 | 0.369 ± 0.085
CUAUAGCAAUAUUACGGUCA | -1.82 ± 0.19 | -1.7 ± 0.24
CUAUAGCAAUAUUACGGUGA | -3.35 ± 0.18 | -2.59 ± 0.23
CUAUAGCAAUAUUACGGUUC | -3.27 ± 0.25 | -2.12 ± 0.39
CUAUAGCAAUAUUACGUACU | -3.66 ± 0.47 | –
CUAUAGCAAUAUUACGUAUU | -3.8 ± 0.32 | –
CUAUAGCAAUAUUACGUCAA | -3.16 ± 0.2 | -2.7 ± 0.23
CUAUAGCAAUAUUACGUCGC | -3.75 ± 0.24 | –
CUAUAGCAAUAUUACGUGAG | -0.571 ± 0.057 | -0.137 ± 0.086
CUAUAGCAAUAUUACGUGCU | -3.61 ± 0.33 | -2.56 ± 0.32

Sequence | self-splicing fitness (ln) (30 °C) | self-splicing fitness (ln) (37 °C)
CUAUAGCAAUAUUACGUGUA | -2.77 ± 0.33 | -2.55 ± 0.26
CUAUAGCAAUAUUACGUUUC | -3.68 ± 0.23 | -2.86 ± 0.31
CUCAAGCAAUAUUACGAAGC | -3.4 ± 0.28 | -2.56 ± 0.35
CUCAAGCAAUAUUACGAGGU | – | -1.19 ± 0.18
CUCAAGCAAUAUUACGAGUA | -3.49 ± 0.28 | -2.41 ± 0.23
CUCAAGCAAUAUUACGAUGA | -1.31 ± 0.11 | -2.07 ± 0.16
CUCAAGCAAUAUUACGCAGA | -3.06 ± 0.5 | -2.41 ± 0.21
CUCAAGCAAUAUUACGCCGG | -2.92 ± 0.38 | -1.53 ± 0.31
CUCAAGCAAUAUUACGCGUC | -4.33 ± 0.39 | -1.37 ± 0.16
CUCAAGCAAUAUUACGCUAG | -4.26 ± 0.32 | -2.35 ± 0.14
CUCAAGCAAUAUUACGCUCU | -4.12 ± 0.25 | -2.39 ± 0.21
CUCAAGCAAUAUUACGGACG | -0.792 ± 0.063 | 0.266 ± 0.095
CUCAAGCAAUAUUACGGAUG | -1.48 ± 0.088 | -1.05 ± 0.13
CUCAAGCAAUAUUACGGCGC | – | -0.598 ± 0.19
CUCAAGCAAUAUUACGGCUC | -3.53 ± 0.26 | -1.34 ± 0.21
CUCAAGCAAUAUUACGGGUA | -2.42 ± 0.14 | -1.01 ± 0.1
CUCAAGCAAUAUUACGGUGG | -2.01 ± 0.061 | -1.1 ± 0.081
CUCAAGCAAUAUUACGGUUU | -2.38 ± 0.1 | -2.36 ± 0.14
CUCAAGCAAUAUUACGUACA | -3.5 ± 0.23 | -1.83 ± 0.18
CUCAAGCAAUAUUACGUGCU | -4.3 ± 0.24 | -2.73 ± 0.17
CUCAAGCAAUAUUACGUGUU | -3.89 ± 0.23 | -2.76 ± 0.22
CUCAAGCAAUAUUACGUUAA | -4.15 ± 0.3 | -2.76 ± 0.19
CUCCAGCAAUAUUACGAAAG | -0.942 ± 0.11 | -1.41 ± 0.14
CUCCAGCAAUAUUACGACCG | -0.451 ± 0.12 | -1.15 ± 0.2
CUCCAGCAAUAUUACGACGG | -3.56 ± 0.23 | -2.42 ± 0.24
CUCCAGCAAUAUUACGACUU | -3.85 ± 0.26 | -2.15 ± 0.19

Sequence | self-splicing fitness (ln) (30 °C) | self-splicing fitness (ln) (37 °C)
CUCCAGCAAUAUUACGAGAC | -4.42 ± 0.46 | -3.28 ± 0.37
CUCCAGCAAUAUUACGAGAG | -4.68 ± 0.31 | -1.32 ± 0.13
CUCCAGCAAUAUUACGAGAU | -2.99 ± 0.19 | -3.15 ± 0.21
CUCCAGCAAUAUUACGAGUC | -3.83 ± 0.34 | -2.15 ± 0.26
CUCCAGCAAUAUUACGAUCC | -4.16 ± 0.47 | -1.49 ± 0.32
CUCCAGCAAUAUUACGAUUC | -4.14 ± 0.18 | -2.72 ± 0.19
CUCCAGCAAUAUUACGAUUU | -3.75 ± 0.2 | -2.08 ± 0.15
CUCCAGCAAUAUUACGCAGG | -3.95 ± 0.21 | -2.83 ± 0.27
CUCCAGCAAUAUUACGCGGU | -4.01 ± 0.23 | -3.96 ± 0.25
CUCCAGCAAUAUUACGCUGU | -4.01 ± 0.34 | -2.97 ± 0.34
CUCCAGCAAUAUUACGGCAU | – | -2.56 ± 0.39
CUCCAGCAAUAUUACGGGCC | -1.01 ± 0.26 | –
CUCCAGCAAUAUUACGGGCU | -3.21 ± 0.13 | -2.49 ± 0.18
CUCCAGCAAUAUUACGGGGC | -4.13 ± 0.23 | -2.56 ± 0.17
CUCCAGCAAUAUUACGGGGU | -3.58 ± 0.17 | -2.61 ± 0.19
CUCCAGCAAUAUUACGUAAC | -3.3 ± 0.13 | -3.08 ± 0.2
CUCCAGCAAUAUUACGUCAU | -2.15 ± 0.13 | -2.84 ± 0.24
CUCCAGCAAUAUUACGUCCU | -3.42 ± 0.28 | -3.01 ± 0.38
CUCCAGCAAUAUUACGUCUA | -4.32 ± 0.24 | -3.05 ± 0.18
CUCCAGCAAUAUUACGUCUC | -2.97 ± 0.17 | -3.71 ± 0.33
CUCCAGCAAUAUUACGUGUC | -3.56 ± 0.22 | -2.55 ± 0.23
CUCCAGCAAUAUUACGUUUG | -3.57 ± 0.12 | -2.1 ± 0.11
CUCGAGCAAUAUUACGAAGA | -2.78 ± 0.29 | -1.64 ± 0.25
CUCGAGCAAUAUUACGAAUA | -3.12 ± 0.3 | -2.59 ± 0.28
CUCGAGCAAUAUUACGACAA | -2.69 ± 0.19 | -2.65 ± 0.19
CUCGAGCAAUAUUACGACCC | – | -1.61 ± 0.46
